Results taken from PMC9044407 (Protein Science : A Publication of the Protein Society, 2022).
Numbering of substitutions follows the chain as printed. Where two headings read alike, the source gives them in different places.

How the values were obtained:
[1] = target: T1, Suv3 (human, UniProt Q8IYB8 48-786); assay: fluorescence polarization
T1 sequence: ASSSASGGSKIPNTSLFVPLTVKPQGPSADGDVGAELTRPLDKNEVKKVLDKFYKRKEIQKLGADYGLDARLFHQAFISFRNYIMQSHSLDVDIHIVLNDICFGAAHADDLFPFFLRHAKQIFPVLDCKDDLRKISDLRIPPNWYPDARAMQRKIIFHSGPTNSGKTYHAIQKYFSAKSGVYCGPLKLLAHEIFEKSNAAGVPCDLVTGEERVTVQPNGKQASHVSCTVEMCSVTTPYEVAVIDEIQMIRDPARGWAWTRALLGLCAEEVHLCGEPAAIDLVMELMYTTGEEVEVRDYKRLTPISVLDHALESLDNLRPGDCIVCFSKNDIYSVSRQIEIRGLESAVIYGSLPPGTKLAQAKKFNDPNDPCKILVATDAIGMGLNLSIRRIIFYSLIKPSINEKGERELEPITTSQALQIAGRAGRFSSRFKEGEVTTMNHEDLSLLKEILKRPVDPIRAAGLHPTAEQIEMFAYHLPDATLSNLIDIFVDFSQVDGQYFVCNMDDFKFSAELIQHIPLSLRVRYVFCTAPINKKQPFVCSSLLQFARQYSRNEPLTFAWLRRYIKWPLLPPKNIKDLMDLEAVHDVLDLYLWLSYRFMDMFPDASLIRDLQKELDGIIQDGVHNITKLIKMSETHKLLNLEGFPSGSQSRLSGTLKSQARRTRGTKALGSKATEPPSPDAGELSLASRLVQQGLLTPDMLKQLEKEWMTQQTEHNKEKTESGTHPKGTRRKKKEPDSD

[2] = target: T2, Suv3ΔC (human, UniProt Q8IYB8 48-722, del723-786); assay: fluorescence polarization
T2 sequence: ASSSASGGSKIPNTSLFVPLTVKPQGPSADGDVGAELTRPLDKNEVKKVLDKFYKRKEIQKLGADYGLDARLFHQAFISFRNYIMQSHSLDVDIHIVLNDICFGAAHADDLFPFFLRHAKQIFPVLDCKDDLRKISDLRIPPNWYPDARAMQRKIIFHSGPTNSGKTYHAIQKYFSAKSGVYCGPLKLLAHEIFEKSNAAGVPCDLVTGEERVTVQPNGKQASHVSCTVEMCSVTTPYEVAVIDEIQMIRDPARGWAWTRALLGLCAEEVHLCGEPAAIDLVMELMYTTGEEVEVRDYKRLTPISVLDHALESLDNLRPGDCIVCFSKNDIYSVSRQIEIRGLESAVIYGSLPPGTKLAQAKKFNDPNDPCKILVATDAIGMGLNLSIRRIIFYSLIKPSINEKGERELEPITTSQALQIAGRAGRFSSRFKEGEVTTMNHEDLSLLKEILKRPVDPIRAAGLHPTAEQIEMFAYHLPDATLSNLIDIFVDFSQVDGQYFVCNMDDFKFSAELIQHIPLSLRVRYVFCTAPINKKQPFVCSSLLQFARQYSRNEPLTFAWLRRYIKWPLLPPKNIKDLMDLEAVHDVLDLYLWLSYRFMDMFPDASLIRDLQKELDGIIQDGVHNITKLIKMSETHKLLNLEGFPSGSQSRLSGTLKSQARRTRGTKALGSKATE

[3] = target: T1, Suv3; assay: fluorescence polarization; remark: listed apart in the source
[4] = target: T1, Suv3; assay: fluorescence polarization; remark: listed apart in the source
[5] = target: T1, Suv3; assay: fluorescence polarization; remark: listed apart in the source
[6] = target: T1, Suv3; assay: fluorescence polarization; remark: listed apart in the source
[7] = target: T1, Suv3; assay: fluorescence polarization; remark: listed apart in the source
[8] = target: the molecule itself
[9] = target: T3, human Suv3 (residues 48–786), N-terminal His-tagged (human, UniProt Q8IYB8 48-786); assay: SEC
T3 sequence (looked up): T1 sequence

B1: dsRNA 5-nt 3' overhang (dsRNA)
RNA 1: GGUGUGGUGGCAUACGUGCAGACGC
RNA 2: GCGUCUGCACGUAUGCCACCACACCAGGAG
[1]
  Kd: ~65 nM

B2: dsDNA 10-nt 3' overhang (dsDNA)
DNA 1: GGTGTGGTGGCATACGTGCAGACGC
DNA 2: GCGTCTGCACGTATGCCACCACACCAGGAGAGGAG
[1]
  Kd: 11.5 ± 0.2 nM
[2]
  Kd: 99 ± 8.6 nM

B3: DNA-RNA hybrid 10-nt 3' overhang (DNA:RNA)
DNA: GGTGTGGTGGCATACGTGCAGACGC
RNA: B2 DNA 2 with T4U, T6U, T12U, T14U
[1]
  Kd: 13.1 ± 0.4 nM
[2]
  Kd: 110 ± 9.5 nM

B4: dsRNA 10-nt 3' overhang (dsRNA)
RNA 1: GGUGUGGUGGCAUACGUGCAGACGC
RNA 2: B2 DNA 2 with T4U, T6U, T12U, T14U
[1]
  Kd: 18.7 ± 0.7 nM
[3]
  Kd: 19.3 ± 0.5 nM
[4]
  Kd: 32.6 ± 0.6 nM
[5]
  Kd: 62.2 ± 2.2 nM

B5: blunt-end dsRNA (dsRNA)
RNA 1: GGUGUGGUGGCAUACGUGCAGACGC
RNA 2: GCGUCUGCACGUAUGCCACCACACC
[6]
  binding result: no binding

B6: ssDNA 25 nt (ssDNA)
DNA: GGTGTGGTGGCATACGTGCAGACGC
[1]
  Kd: 44 ± 1.7 nM

B7: dsDNA 10-nt 5' overhang (dsDNA)
DNA 1: GGTGTGGTGGCATACGTGCAGACGC
DNA 2: GAGGAGAGGAGCGTCTGCACGTATGCCACCACACC
[7]
  binding signal: 8 fold lower affinity than 3' overhang dsDNA

B8: dsRNA 10-nt 5' overhang (dsRNA)
RNA 1: GGUGUGGUGGCAUACGUGCAGACGC
RNA 2: B7 DNA 2 with T14U, T16U, T22U, T24U
[6]
  binding result: no binding

B9: DNA-RNA hybrid 10-nt 5' overhang (DNA:RNA)
DNA: GGTGTGGTGGCATACGTGCAGACGC
RNA: B7 DNA 2 with T14U, T16U, T22U, T24U
[7]
  binding signal: 23 fold lower affinity than 3' overhang DNA-RNA hybrid

B10: blunt-end DNA-RNA hybrid (DNA:RNA)
DNA: GGTGTGGTGGCATACGTGCAGACGC
RNA: GCGUCUGCACGUAUGCCACCACACC
[1]
  Kd: 103 ± 5.9 nM

B11: dsRNA 20-nt 3' overhang (dsRNA)
RNA 1: GGUGUGGUGGCAUACGUGCAGACGC
RNA 2: GCGUCUGCACGUAUGCCACCACACCAGGAGAGGAGAGGAGAGGAG
[1]
  Kd: ~18 nM

B12: blunt-end dsDNA (dsDNA)
DNA 1: GGTGTGGTGGCATACGTGCAGACGC
DNA 2: GCGTCTGCACGTATGCCACCACACC
[1]
  Kd: 63.9 ± 1.5 nM

B13: ssRNA 25 nt (ssRNA)
RNA: GGUGUGGUGGCAUACGUGCAGACGC
[1]
  Kd: 53.1 ± 0.7 nM

B14: dsRNA 15-nt 3' overhang (dsRNA)
RNA 1: GGUGUGGUGGCAUACGUGCAGACGC
RNA 2: GCGUCUGCACGUAUGCCACCACACCAGGAGAGGAGAGGAG
[1]
  Kd: ~18 nM

B15: human PNPase (residues 46–783), C-terminal His-tagged (enzyme, UniProt Q8TCS8 46-783, looked up)
chain: AVAVDLGNRKLEISSGKLARFADGSAVVQSGDTAVMVTAVSKTKPSPSQFMPLVVDYRQKAAAAGRIPTNYLRREIGTSDKEILTSRIIDRSIRPLFPAGYFYDTQVLCNLLAVDGVNEPDVLAINGASVALSLSDIPWNGPVGAVRIGIIDGEYVVNPTRKEMSSSTLNLVVAGAPKSQIVMLEASAENILQQDFCHAIKVGVKYTQQIIQGIQQLVKETGVTKRTPQKLFTPSPEIVKYTHKLAMERLYAVFTDYEHDKVSRDEAVNKIRLDTEEQLKEKFPEADPYEIIESFNVVAKEVFRSIVLNEYKRCDGRDLTSLRNVSCEVDMFKTLHGSALFQRGQTQVLCTVTFDSLESGIKSDQVITAINGIKDKNFMLHYEFPPYATNEIGKVTGLNRRELGHGALAEKALYPVIPRDFPFTIRVTSEVLESNGSSSMASACGGSLALMDSGVPISSAVAGVAIGLVTKTDPEKGEIEDYRLLTDILGIEDYNGDMDFKIAGTNKGITALQADIKLPGIPIKIVMEAIQQASVAKKEILQIMNKTISKPRASRKENGPVVETVQVPLSKRAKFVGPGGYNLKKLQAETGVTISQVDEETFSVFAPTPSAMHEARDFITEICKDDQEQQLEFGAVYTATITEIRDTGVMVKLYPNMTAVLLHNTQLDQRKIKHPTALGLEVGQEIQVKYFGRDPADGRMRLSRKVLQSPATTVVRTLNDRSSIVMGEPISQSSSNSQ
[8]
  stoichiometry N: 3
[9]
  binding result: binds
